Source: patent US20050287136A1

Assays:
[1] = molecular target: CTLA-4-Ig(G1) (Repligen, Inc.) (UniProt P16410); test: IGEN ECL bead assay, CTLA-4-Ig(G1) against CD28-Ig(G1), antibody 1 ug/ml
[2] = molecular target: CTLA-4-Ig(G1) (Repligen, Inc.) (UniProt P16410); test: IGEN ECL bead assay, CTLA-4-Ig(G1) against B7.2-Ig(G1), antibody 1 ug/ml

B1: 4.10.2 (antibody, human IgG2, V domains shown)
VH: QVQLVESGGGVVQPGRSLRLSCVASGFIFSSHGIHWVRQAPGKGLEWVAVIWYDGRNKDYADSVKGRFTISRDNSKNTLYLQMNSLRAEDTAVYYCARVAPLGPLDYWGQGTLVTVSS
VL: EFVLTQSPGTLSLSPGERATLSCRASQSISSNFLAWYQQKPGQAPRLLIYRPSSRATGIPDSFSGSGSGTDFTLTISRLEPEDFALYYCQQYGTSPFTFGPGTKVDIK
modifications: chain 1 pos 1: pyroglutamate from Gln (FIG. 9: NH2-Blocked, pQ), written Q
selectivity ratio CTLA4/CD28 [1]: > 500 :1
selectivity ratio CTLA4/B7.2 [2]: > 500 :1
